In patent publication US11866736B2, “Protein prostheses for mitochondrial diseases or conditions” (The General Hospital Corporation, priority 2015, dated 2024):
Positions count from the first letter of the chain named. Names may count otherwise.

B1: LbNOX: water-forming NADH oxidase endogenous to Lactobacillus brevis; tested with C-terminal FLAG tag (protein, listed as Lactobacillus brevis)
chain: KVTVVGCTHAGTFAIKQILAEHPDAEVTVYERNDVISFLSCGIALYLGGKVADPQGLFYSSPEELQKLGANVQMNHNVLAIDPDQKTVTVEDLTNHAQTTESYDKLVMTSGSWPIVPKIPGIDSDRVKLCKNWAHAQALIEDAKEAKRITVIGAGYIGAELAEAYSTTGHDVTLIDAMARVMPKYFDADFTDVIEQDYRDHGVQLALGETVESFTDSATGLTIKTDKNSYETDLAILCIGFRPNTDLLKGKVDMAPNGAIITDDYMRSSNPDIFAAGDSAAVHYNPTHQNAYIPLATNAVRQGILVGKNLVKPTVKYMGTQSSSGLALYDRTIVSTGLTLAAAKQQGLNAEQVIVEDNYRPEFMPSTEPVLMSLVFDPDTHRILGGALMSKYDVSQSANTLSVCIQNENTIDDLAMVDMLFQPNFDRPFNYLNILAQAAQAKVAQSVNA
modifications: C-terminal FLAG tag
B2: TPNOX: NADPH-specific quintuple mutant (G159A/D177A/A178R/M179S/P184R) of LbNOX (protein)
chain: B1 chain with G158A, D176A, A177R, M178S, P183R

What was measured:
[1] = Continuous assay of H2O2 production (Amplex Red/HRP/SOD); type: biochemical
Description: Reaction mixture contained: 50 mM NaPi pH 7.5, 150 mM NaCl buffer, 350 μM NADH, SOD 130U and 100 μM D-glucose at 37° C. At times indicated LbNOX and glucose oxidase were added. Glucose oxidase was used to validate the assay, since this enzyme produces H2O2 from oxygen and D-glucose. Rates on H2O2-forming activity of LbNOX were compared to rates of NADH disappearance in parallel experiments. It was estimated that around 1.7±0.3% of H2O2 is produced by LbNOX (n=4).
H2O2 production was monitored in a continuous assay followed by the increase in absorbance at 570 nm upon resorufin formation (ε570=54 mM^−1 cm^−1). It was shown previously that presence of NADH in the assay mixture results in the oxidation of AMPLEX® Red dye in the HRP-dependent manner and this process is greatly diminished by supplementation of superoxide dismutase (SOD) (Votyakova, et al., Arch. Biochem. Biophys., 431:138, 2004). […] The reaction was preincubated at 37° C. for 3 min before LbNOX was added (0.15 μg) and subsequently after LbNOX-dependent rate of H2O2 production was recorded, 4 U of glucose oxidase (Sigma, G2133-10 KU) was added (FIG. 6). […] H2O2-forming activity of LbNOX was compared to the total NADH oxidase activity which was determined in a parallel experiment when the decrease of NADH absorbance at 340 nm was monitored under identical conditions.

primary rat hepatocytes = experiment: Gluconeogenesis in primary hepatocytes (adenoviral transduction); type: cell-based; details: adenovirus transduction, 5 mM lactate, glucose measured after 6 hours
Text: Two custom adenoviruses (Adenovirus Type 5 (dE1/E3)) were produced by Vector Biolabs. The same LbNOX and mitoLbNOX nucleotide sequences were used as in the lentiviral pLVX-TRE3G constructs. Adenoviral constructs encode for expression of either LbNOX or mitoLbNOX and eGFP, each gene driven by its own CMV promoter. Adenovirus with eGFP driven by the CMV promoter was used as a control (Vector Biolabs, 1060-HT).
Primary hepatocytes were obtained from the MGH Cell Resource Core, where they were freshly isolated by collagenase perfusion of livers from 24-hour fasted Sprague-Dawley rats and plated onto 24-well collagen-coated plates. Twenty four thousand cells were plated and cultured overnight in isolation media (DMEM with high glucose and pyruvate (Life Technologies, 11995)) supplemented with 20 ng/mL epidermal growth factor, 14.3 μg/mL glucagon, insulin, 7.5 μg/mL hydrocortisone, 10% FBS, 1% Penicillin-streptomycin). Cells were then transduced with the indicated adenoviral vector (MOI 20) and were serum starved by incubating in DMEM without additional supplementation overnight. […] Media was sampled 6 hours later and glucose was measured using the AMPLEX® Red Glucose Assay (Life-Technologies) and normalized to total protein levels from hepatocytes lysed in 1% SDS as measured by the BCA assay. […]

HeLa Tet3G cells = experiment: Glucose concentration-dependent cell survival; type: cell-based, human
Description: Images of 96-well plates with fixed cells stained with Hoechst 33345 were collected using Molecular Devices IMAGEXPRESS® Micro XLS. Four images were taken to cover the whole well. Images were analyzed and nuclei number per well was counted using CellProfiler 2.0 image analysis software (Carpenter, et al., Genome Biol., 7:R100, 2006; and Kamentsky, et al., Bioinformatics, 27:1179, 2011).
Ten thousand HeLa Tet3G NDI1, Luciferase, LbNOX or mitoLbNOX cells were seeded in 200 μl of DMEM (DMEM (US Biological, D9800), 3.7 g/L NaHCO3, 10% dialyzed FBS (Life Technologies, 26400-044)) per well of a black 96-well plate with clear bottom (Corning, 3904). Twenty four hours after seeding, 10 μl of 6 μg/ml doxycycline (300 ng/ml final concentration) or water was added to each well. Twenty four hours after addition of doxycycline, media was exchanged to DMEM (DMEM (US Biological, D9800), 3.7 g/L NaHCO3, 10% dialyzed FBS (Life Technologies, 26400-044))±300 ng/ml doxycycline. […] After 24 hours, media was aspirated and cells were fixed by adding 100 μl of 4% paraformaldehyde in PBS and incubating at room temperature for at least 30 min. Paraformaldehyde solution was aspirated and cells were stained with 200 μl of 1 μg/ml Hoechst 33345. Plates were covered with sealing aluminum foil and stored at 4° C. before counting cells in each well with Molecular Dynamics IMAGEXPRESS® Ultra (see “Nuclei counting using Molecular Devices IMAGEXPRESS® Ultra,” above).

[2] = Enzymatic assay of NAD(P)H oxidase activity, NADPH as substrate (Michaelis-Menten analysis); type: biochemical
Description: TPNOX is highly specific towards NADPH (e.g., approximately 1120 fold more reactive with NADPH than with NADH based on respective kat/KM values).
Recombinant LbNOX activity was monitored by following the decrease of the absorbance of NAD(P)H at […] using CARY® 100 spectrophotometer (Agilent, CA). A typical reaction mixture contained 2 μM FAD in 0.5 ml of the assay buffer (50 mM Na2HPO4, pH 7.5, 150 mM NaCl) and was incubated for 4 min at 37° C. before NAD(P)H (2-600 μM) and enzyme (0.08-6.8 μg) were added. Extinction coefficient (ε340=6.2 mM^−1 cm^−1) was used to calculate NAD(P)H oxidase activity. Simultaneous monitoring of oxygen consumption and NADH fluorescence was performed using a custom-built fluorimeter. In our setup the REDEYE™ oxygen patch (OceanOptics) was installed in a cuvette and the optical probe was connected to a fluorimeter. Oxygen causes quenching of the REDEYE™ patch fluorescence which allows to monitor the partial pressure of oxygen. In our experiments 0.5 ml of the assay buffer was preincubated at 28° C. before NADH (40-1500 μM) and LbNOX (0.1-2 μg) were added.

| Molecule | H2O2 relative to H2O production during catalytic cycle [1] | H2O2 produced (H2O2-forming rate compared to rate of NADH disappearance) ([1]; 350 μM NADH, 37° C., n=4) | gluconeogenesis from lactate (primary rat hepatocytes) | effect on decrease in cell number (cell survival) at low glucose concentrations in the presence of piericidin (HeLa Tet3G cells; 1 μM piericidin, 24 hours) | effect on decrease in cell number (cell survival) at low glucose concentrations in the presence of antimycin (HeLa Tet3G cells; antimycin) | kcat with NADPH [2] [s⁻¹] | Km ([2]; recombinant enzyme) [µM] |
| --- | --- | --- | --- | --- | --- | --- | --- |
| B1 | 1-2 % by mole | around 1.7±0.3% | significantly increased | no effect | no effect |  |  |
| B2 |  |  |  |  |  | 268 ± 4 | 22 ± 2 |
